The results in this text go back to patent US9481870B2, “Nucleic acid encoding a polypeptide having aminotransferase activity, vectors and host cells comprising the nucleic acid” (KANEKA CORPORATION, priority 2010, dated 2016).

This data set in a line: Resistance to water-soluble organic solvent (residual activity). To be noted: 2 hours, 30° C. The format is physicochemical. As for the experimental part: Resistance to a water-soluble organic solvent can be determined by the following method. Specifically, first, 800 uL of each water-soluble organic solvent is added to 200 uL of a 0.1 M aqueous potassium phosphate solution (pH7.5) supplemented with 0.5 mM PLP containing a purified polypeptide, so that the solvent is brought into contact with the solution at 30° C. for 2 hours. Subsequently, the resultant is diluted with a 0.1 M aqueous potassium phosphate solution supplemented with 0.5 mM PLP. Activity in the dilute solution is compared with the same in a purified polypeptide solution before addition of the solvent using the above activity assay A.
• (5) Resistance to water-soluble organic solvent: 800 μL of 1-propanol, 2-propanol, or acetone was added to 200 μL of 0.1 M potassium phosphate buffer (pH7.5) containing 0.5 mM pyridoxal phosphate to which purified TPM had been added, followed by 2 hours of treatment at 30° C. After treatment, 0.1 M potassium phosphate buffer (pH7.5) containing 0.5 mM pyridoxal phosphate was diluted 20-fold, and then the activity of the diluted solution was determined under conditions similar to those above.
The resistance of commercially available Vibrio fluvialis-derived ω-Transaminase VF (Julich-Chemicals) to a water-soluble organic solvent was examined by a method similar to that for resistance to a water-soluble organic solvent in Example 9 (5).

B1: TPM: purified aminotransferase polypeptide from Pseudomonas sp. MV37, about 50,000 molecular weight, amino acid sequence SEQ ID NO: 1 (protein, listed as Pseudomonas sp.)
chain: MNHLEKMLELDRNHLIHPHLPKSEFSRTIFARGKGCKLWDTEGREYLDATGGLWLAQIGHGREEIAEVAARQMKQLEYFTCFWDFSNERAIELAEKLARLAPGDLEMSFFTSGGSEGDDAAIKTARYYHSQRGEPKRTWILSRNNAYHGLAYGGGTATGFPELRDGMGPGLPHVAYLTQPNAYRHYYFDGQNPTDFCVSELEKMIASIGAENIAAMIAEPIMGVGGMVPPPVDYWPRMSQVLKKNGILLIFDEVVSAFGRSGHWFAAEKYGVIPDIMVTAKGISSGYIPLGAVIMSRDVADTVREGHGYPLGYTYSGHPVACAVALENLRILEDEDLINRSNHMGTYIAEQLTALRDNPCVGEVRQAGMGIGIELVTDKESRQPLPDAALVIPDIIREETGVIVRISNATNLCMSPPLTMSREEADRAVEAVCSVLSRVKPDGKV
In the case of B1, the “Residual activity rate (%)” value runs as follows: (1-Propanol 80% v/v) 97%; (2-Propanol 80% v/v) 100%; (Acetone 80% v/v) 99%. Moreover, the “stability against 1-propanol, 2-propanol, and acetone” value (80% v/v solvent) was “extremely stable”.
